The results in this text go back to publication PMC9712175.

This assay has as its target extracellular domain (ECD) of human insulin-like growth factor-1 receptor (hIGF-1R) (human) (UniProt P08069). Put plainly: other fluorescence titration.
Sequence of UniProt P08069 (P08069 741-935): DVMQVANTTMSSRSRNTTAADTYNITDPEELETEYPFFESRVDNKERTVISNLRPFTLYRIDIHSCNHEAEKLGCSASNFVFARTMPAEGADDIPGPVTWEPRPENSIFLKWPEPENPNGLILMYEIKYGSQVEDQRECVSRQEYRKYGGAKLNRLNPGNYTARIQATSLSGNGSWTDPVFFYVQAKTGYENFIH

By Kd is commonly meant a measure of binding affinity in units of concentration. For “full-length human insulin-like growth factor 1 (hIGF1) (from UniProt P05019 22-118) (ligand)”, the Kd is 90 nM.
